Literature values as cited in patent US6294648A, “Protein having proteinase inhibitor activity” (Bayer Corporation, priority 1999, dated 2001).
Where two headings read alike, the source gives them in different places. Blank lines part the entries; values can stand above or below the molecule they belong to.

What was measured:
trypsin = target: T1, trypsin (Bos taurus, UniProt P00760)
T1 construct: gene PRSS1
T1 sequence (P00760 24-246): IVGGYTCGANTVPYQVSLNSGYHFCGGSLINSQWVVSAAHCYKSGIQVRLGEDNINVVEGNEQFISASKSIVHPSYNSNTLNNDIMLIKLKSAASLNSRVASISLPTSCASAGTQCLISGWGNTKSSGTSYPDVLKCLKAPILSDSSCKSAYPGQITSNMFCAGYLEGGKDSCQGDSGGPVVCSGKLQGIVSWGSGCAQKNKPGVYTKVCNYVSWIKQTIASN

[1] = system: neutrophil-induced ECM solubilization
proteinase 3 = target: T2, proteinase 3 (Homo sapiens, UniProt P24158)
T2 sequence (P24158 28-256): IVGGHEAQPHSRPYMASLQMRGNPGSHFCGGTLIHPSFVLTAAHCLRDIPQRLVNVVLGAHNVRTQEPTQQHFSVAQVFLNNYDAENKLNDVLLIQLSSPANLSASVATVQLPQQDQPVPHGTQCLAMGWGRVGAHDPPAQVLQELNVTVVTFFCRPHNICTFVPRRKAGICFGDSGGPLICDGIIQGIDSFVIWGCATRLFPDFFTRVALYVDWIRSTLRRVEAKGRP

leukocyte elastase = target: T3, leukocyte elastase (Homo sapiens, UniProt P08246)
T3 sequence (P08246 30-267): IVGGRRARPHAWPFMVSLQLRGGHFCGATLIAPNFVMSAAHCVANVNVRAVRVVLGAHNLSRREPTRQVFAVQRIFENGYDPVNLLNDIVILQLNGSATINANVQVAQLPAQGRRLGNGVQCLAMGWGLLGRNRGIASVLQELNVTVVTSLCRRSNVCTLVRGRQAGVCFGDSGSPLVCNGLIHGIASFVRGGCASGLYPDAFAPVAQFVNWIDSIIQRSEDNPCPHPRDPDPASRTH

cathepsin G = target: T4, cathepsin G (Homo sapiens, UniProt P08311)
T4 sequence (P08311 21-255): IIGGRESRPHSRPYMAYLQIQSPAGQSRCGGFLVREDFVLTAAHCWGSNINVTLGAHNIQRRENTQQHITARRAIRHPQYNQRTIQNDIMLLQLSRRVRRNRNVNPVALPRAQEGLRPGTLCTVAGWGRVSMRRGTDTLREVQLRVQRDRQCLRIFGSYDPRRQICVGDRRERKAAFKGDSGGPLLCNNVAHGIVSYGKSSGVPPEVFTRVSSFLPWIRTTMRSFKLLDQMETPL

[2] = system: leukocyte elastase-induced emphysema; details: hamsters
plasmin = plasmin (Homo sapiens, UniProt P00747)
Chain of plasmin (P00747 581-810 limits assumed, species assumed): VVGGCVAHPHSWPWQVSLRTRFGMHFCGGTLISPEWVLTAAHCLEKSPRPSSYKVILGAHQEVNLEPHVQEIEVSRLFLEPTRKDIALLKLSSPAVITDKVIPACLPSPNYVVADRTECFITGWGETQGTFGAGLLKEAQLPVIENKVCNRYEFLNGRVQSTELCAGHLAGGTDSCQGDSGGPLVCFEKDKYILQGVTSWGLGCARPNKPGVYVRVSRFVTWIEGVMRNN
Chain of plasmin (P00747 97-580 partner limits assumed, species assumed): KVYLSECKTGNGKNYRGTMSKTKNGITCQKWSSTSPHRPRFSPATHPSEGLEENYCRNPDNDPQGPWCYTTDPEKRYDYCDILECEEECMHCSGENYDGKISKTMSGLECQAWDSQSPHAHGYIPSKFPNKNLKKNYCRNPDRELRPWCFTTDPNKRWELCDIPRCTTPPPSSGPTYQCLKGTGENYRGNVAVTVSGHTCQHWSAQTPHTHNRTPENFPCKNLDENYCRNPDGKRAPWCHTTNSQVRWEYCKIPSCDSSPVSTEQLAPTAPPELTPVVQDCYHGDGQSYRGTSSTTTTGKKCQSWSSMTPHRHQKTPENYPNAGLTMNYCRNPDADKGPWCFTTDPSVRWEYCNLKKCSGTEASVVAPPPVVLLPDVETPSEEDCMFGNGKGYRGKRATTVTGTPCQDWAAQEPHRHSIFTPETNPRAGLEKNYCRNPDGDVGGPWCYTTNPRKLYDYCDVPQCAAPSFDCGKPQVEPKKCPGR

inhibition of trypsin, in words (trypsin): potent
Ki (chymotrypsin; read-out: Ki(1), chymotrypsin): 1000 nM
Ki (chymotrypsin; read-out: Ki(2), chymotrypsin): 300 nM
B1: STI: Kunitz family inhibitor of trypsin from soybean (protein, UniProt P01070 25-205, looked up)
Trypsin inhibitor A: DFVLDNEGNPLENGGTYYILSDITAFGGIRAAPTGNERCPLTVVQSRNELDKGIGTIISSPYRIRFIAEGHPLSLKFDSFAVIMLCVGIPTEWSVVEDLPEGPAVKIGENKDAMDGWFRLERVSDDEFNNYKLVFCPQQAEDDKCGDIGISIDHDDGTRRLVVSKNKPLVVQFQKLDKESL
ET-1 degradation (activated neutrophils): abolishes ET-1 degradation almost completely
inhibition of chymotrypsin, in words (chymotrypsin): significantly weaker inhibitor
inhibition of neutrophil-induced ECM solubilization [1]: completely or nearly completely inhibit

inhibition of plasmin, in words (plasmin): potent inhibitor
Ki (trypsin): 0.01 nM
Ki (chymotrypsin; read-out: Ki, chymotrypsin): 0.48 nM
inhibition of leukocyte elastase, in words (leukocyte elastase): not leukocyte elastase
B5: placental bikunin: Kunitz family inhibitor; potent inhibitor of plasmin (protein, UniProt O43291 28-252, looked up)
Kunitz-type protease …: ADRERSIHDFCLVSKVVGRCRASMPRWWYNVTDGSCQLFVYGGCDGNSNNYLTKEECLKKCATVTENATGDLATSRNAADSSVPSAPRRQDSEDHSSDMFNYEEYCTANAVTGPCRASFPRWYFDVERNSCNNFIYGGCRGNKNSYRSEEACMLRCFRQQENPPLPLGSKVVVLAGLFVMVLILFLGASMVYLIRVARRNQERALRTVWSSGDDKEQLVKNTYVL

Continued, molecule first:

B2: Monocyte/neutrophil elastase inhibitor: a serpin family inhibitor (protein, UniProt P30740 1-379, looked up)
Leukocyte elastase inhibitor: MEQLSSANTRFALDLFLALSENNPAGNIFISPFSISSAMAMVFLGTRGNTAAQLSKTFHFNTVEEVHSRFQSLNADINKRGASYILKLANRLYGEKTYNFLPEFLVSTQKTYGADLASVDFQHASEDARKTINQWVKGQTEGKIPELLASGMVDNMTKLVLVNAIYFKGNWKDKFMKEATTNAPFRLNKKDRKTVKMMYQKKKFAYGYIEDLKCRVLELPYQGEELSMVILLPDDIEDESTGLKKIEEQLTLEKLHEWTKPENLDFIEVNVSLPRFKLEESYTLNSDLARLGVQDLFNSSKADLSGMSGARDIFISKIVHKSFVEVNEEGTEAAAATAGIATFCMLMPEENFTADHPFLFFIRHNSSGSILFLGRFSSP
inhibition of proteinase 3, in words (proteinase 3): inhibits
inhibition of leukocyte elastase, in words (leukocyte elastase): inhibits

B3: Antileukoproteinase (SLPI): member of the mucous proteinase inhibitor family (protein, UniProt P03973 26-132, looked up)
Antileukoproteinase: SGKSFKAGVCPPKKSAQCLRYKKPECQSDWQCPGKKRCCPDTCGIKCLDPVDTPNPTRRKPGKCPVTYGQCLMLNPPNFCEMDGQCKRDLKCCMGMCGKSCVSPVKA
inhibition of cathepsin G, in words (cathepsin G): not
inhibition of proteinase 3, in words (proteinase 3): not proteinase 3
Ki (leukocyte elastase; read-out: Ki, elastase): 0.6 nM

B4: Eglin C: member of the potato inhibitor 1 family from leech Hirudo medicinalis (protein, UniProt P01051 1-70, looked up)
Eglin C: TEFGSELKSFPEVVGKTVDQAREYFTLHYPQYDVYFLPEGSPVTLDLRYNRVRVFYNPGTNVVNHVPHVG
Ki (cathepsin G): ~0.1 nM
inhibition of proteinase 3, in words (proteinase 3): only weakly inhibits
protection against leukocyte elastase-induced emphysema / pulmonary hemorrhage [2]: completely protected
Ki (leukocyte elastase; read-out: Ki, leukocyte elastase): 0.37 nM

B6: Alpha-1-antichymotrypsin: serpin family proteinase inhibitor (protein, UniProt P01011 24-423, looked up)
Alpha-1-antichymotrypsin: HPNSPLDEENLTQENQDRGTHVDLGLASANVDFAFSLYKQLVLKAPDKNVIFSPLSISTALAFLSLGAHNTTLTEILKGLKFNLTETSEAEIHQSFQHLLRTLNQSSDELQLSMGNAMFVKEQLSLLDRFTEDAKRLYGSEAFATDFQDSAAAKKLINDYVKNGTRGKITDLIKDLDSQTMMVLVNYIFFKAKWEMPFDPQDTHQSRFYLSKKKWVMVPMMSLHHLTIPYFRDEELSCTVVELKYTGNASALFILPDQDKMEEVEAMLLPETLKRWRDSLEFREIGELYLPKFSISRDYNLNDILLQLGIEEAFTSKADLSGITGARNLAVSQVVHKAVLDVFEEGTEASAATAVKITLLSALVETRTIVRFNRPFLMIIVPTDTQNIFFMSKVTNPKQA
inhibition of cathepsin G, in words (cathepsin G): inhibits
inhibition of proteinase 3, in words (proteinase 3): not proteinase 3
